Square brackets hold non-standard residues; d marks the D form. Ends that are not written are not given here. Ac6c = NC1(C(=O)O)CCCCC1
B1: ARV-1502 (peptide)
peptide: [Ac6c]RPDKPRPYLPRPRPPRPVR-NH2
modifications: N-terminus assumed
SMILES: CC(C)C[C@H](NC(=O)[C@H](Cc1ccc(O)cc1)NC(=O)[C@@H]1CCCN1C(=O)[C@H](CCCNC(=N)N)NC(=O)[C@@H]1CCCN1C(=O)[C@H](CCCCN)NC(=O)[C@H](CC(=O)O)NC(=O)[C@@H]1CCCN1C(=O)[C@H](CCCNC(=N)N)NC(=O)C1(N)CCCCC1)C(=O)N1CCC[C@H]1C(=O)N[C@@H](CCCNC(=N)N)C(=O)N1CCC[C@H]1C(=O)N[C@@H](CCCNC(=N)N)C(=O)N1CCC[C@H]1C(=O)N1CCC[C@H]1C(=O)N[C@@H](CCCNC(=N)N)C(=O)N1CCC[C@H]1C(=O)N[C@H](C(=O)N[C@@H](CCCNC(=N)N)C(N)=O)C(C)C
B2: peptide #2 (peptide)
chain: [Ac6c]RPKKPRPYLPRPRPPRPVR-NH2
modifications: N-terminus assumed
SMILES: CC(C)C[C@H](NC(=O)[C@H](Cc1ccc(O)cc1)NC(=O)[C@@H]1CCCN1C(=O)[C@H](CCCNC(=N)N)NC(=O)[C@@H]1CCCN1C(=O)[C@H](CCCCN)NC(=O)[C@H](CCCCN)NC(=O)[C@@H]1CCCN1C(=O)[C@H](CCCNC(=N)N)NC(=O)C1(N)CCCCC1)C(=O)N1CCC[C@H]1C(=O)N[C@@H](CCCNC(=N)N)C(=O)N1CCC[C@H]1C(=O)N[C@@H](CCCNC(=N)N)C(=O)N1CCC[C@H]1C(=O)N1CCC[C@H]1C(=O)N[C@@H](CCCNC(=N)N)C(=O)N1CCC[C@H]1C(=O)N[C@H](C(=O)N[C@@H](CCCNC(=N)N)C(N)=O)C(C)C
B3: peptide 102 (peptide)
peptide: [Ac6c]RPFFPRPYLPLPRPPRPVR-NH2
modifications: N-terminus assumed
SMILES: CC(C)C[C@H](NC(=O)[C@H](Cc1ccc(O)cc1)NC(=O)[C@@H]1CCCN1C(=O)[C@H](CCCNC(=N)N)NC(=O)[C@@H]1CCCN1C(=O)[C@H](Cc1ccccc1)NC(=O)[C@H](Cc1ccccc1)NC(=O)[C@@H]1CCCN1C(=O)[C@H](CCCNC(=N)N)NC(=O)C1(N)CCCCC1)C(=O)N1CCC[C@H]1C(=O)N[C@@H](CC(C)C)C(=O)N1CCC[C@H]1C(=O)N[C@@H](CCCNC(=N)N)C(=O)N1CCC[C@H]1C(=O)N1CCC[C@H]1C(=O)N[C@@H](CCCNC(=N)N)C(=O)N1CCC[C@H]1C(=O)N[C@H](C(=O)N[C@@H](CCCNC(=N)N)C(N)=O)C(C)C

Tests used:
[1] = target: S. aureus DnaK (Staphylococcus aureus, UniProt P99110 1-610); assay: FP
[2] = target: E. coli DnaK (Escherichia coli, UniProt P0A6Y8 1-638); assay: FP

Binder | Ki [1] | Ki [2]
B1 | 13700 nM | 400 nM
B2 |  | 600 nM
B3 | 4200 nM | 310 nM

— article PMC8864165 (2022)
